Source: publication PMC2234240 (The Journal of Cell Biology, 2008)

Biological target: T1, GST-Rsa1p (yeast (S. cerevisiae), UniProt Q08932 1-381)
T1 sequence: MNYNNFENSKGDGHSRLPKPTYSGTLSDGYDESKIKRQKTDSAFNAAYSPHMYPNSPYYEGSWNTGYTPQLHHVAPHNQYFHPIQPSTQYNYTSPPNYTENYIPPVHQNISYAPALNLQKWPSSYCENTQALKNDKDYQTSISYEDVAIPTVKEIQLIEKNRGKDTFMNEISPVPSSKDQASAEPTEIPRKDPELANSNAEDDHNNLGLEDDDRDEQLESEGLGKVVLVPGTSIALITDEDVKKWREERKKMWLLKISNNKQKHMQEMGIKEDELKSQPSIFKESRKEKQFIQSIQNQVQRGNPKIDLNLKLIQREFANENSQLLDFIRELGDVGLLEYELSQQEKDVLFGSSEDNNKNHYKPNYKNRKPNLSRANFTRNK
Test: pull-down

B1: recombinant Snu13p (natural protein)
chain: MSAPNPKAFPLADAALTQQILDVVQQAANLRQLKKGANEATKTLNRGISEFIIMAADCEPIEILLHLPLLCEDKNVPYVFVPSRVALGRACGVSRPVIAASITTNDASAIKTQIYAVKDKIETLLI
binding result: binds
